# From paper PMC8222357, “The structure of ORC–Cdc6 on an origin DNA reveals the mechanism of ORC activation by the replication initiator Cdc6” (Nature Communications, 2021)
# T1: Orc1, subunit of S. cerevisiae ORC (S. cerevisiae, UniProt P54784 1-914)
# T1 construct: Orc1, S. cerevisiae, as the Orc1 chain of m1; Stood in the assay as a subunit of the whole ORC; written on its own for the contacts seen in the structure; source: purified as part of ORC, as described previously with minor modifications
# T1 sequence: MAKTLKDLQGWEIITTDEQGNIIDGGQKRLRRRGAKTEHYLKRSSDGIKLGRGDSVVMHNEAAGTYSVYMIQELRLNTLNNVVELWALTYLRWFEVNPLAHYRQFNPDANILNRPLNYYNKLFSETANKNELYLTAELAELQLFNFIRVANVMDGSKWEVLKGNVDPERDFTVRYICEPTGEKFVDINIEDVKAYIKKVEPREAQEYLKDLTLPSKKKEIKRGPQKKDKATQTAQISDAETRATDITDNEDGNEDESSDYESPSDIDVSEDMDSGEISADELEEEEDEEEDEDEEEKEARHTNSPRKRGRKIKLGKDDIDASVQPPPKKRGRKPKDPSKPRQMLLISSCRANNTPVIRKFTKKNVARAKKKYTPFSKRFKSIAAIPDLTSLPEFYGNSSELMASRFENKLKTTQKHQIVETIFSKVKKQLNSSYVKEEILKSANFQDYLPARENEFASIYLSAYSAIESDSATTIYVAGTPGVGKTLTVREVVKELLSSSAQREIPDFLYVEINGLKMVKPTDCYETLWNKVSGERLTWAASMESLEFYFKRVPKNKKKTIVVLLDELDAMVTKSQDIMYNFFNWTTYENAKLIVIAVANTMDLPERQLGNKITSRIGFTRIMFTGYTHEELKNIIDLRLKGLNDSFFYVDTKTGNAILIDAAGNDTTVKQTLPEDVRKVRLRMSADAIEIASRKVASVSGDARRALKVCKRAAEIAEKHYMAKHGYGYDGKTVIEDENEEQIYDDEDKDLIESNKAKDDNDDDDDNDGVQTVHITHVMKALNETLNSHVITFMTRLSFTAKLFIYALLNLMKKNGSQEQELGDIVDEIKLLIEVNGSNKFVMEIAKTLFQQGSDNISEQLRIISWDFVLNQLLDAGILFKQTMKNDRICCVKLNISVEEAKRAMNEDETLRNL
# T2: Orc3, subunit of S. cerevisiae ORC (S. cerevisiae, UniProt P54790 1-616)
# T2 construct: Orc3, S. cerevisiae, as the Orc3 chain of m1; Stood in the assay as a subunit of the whole ORC; written on its own for the contacts seen in the structure; source: purified as part of ORC, as described previously with minor modifications
# T2 sequence: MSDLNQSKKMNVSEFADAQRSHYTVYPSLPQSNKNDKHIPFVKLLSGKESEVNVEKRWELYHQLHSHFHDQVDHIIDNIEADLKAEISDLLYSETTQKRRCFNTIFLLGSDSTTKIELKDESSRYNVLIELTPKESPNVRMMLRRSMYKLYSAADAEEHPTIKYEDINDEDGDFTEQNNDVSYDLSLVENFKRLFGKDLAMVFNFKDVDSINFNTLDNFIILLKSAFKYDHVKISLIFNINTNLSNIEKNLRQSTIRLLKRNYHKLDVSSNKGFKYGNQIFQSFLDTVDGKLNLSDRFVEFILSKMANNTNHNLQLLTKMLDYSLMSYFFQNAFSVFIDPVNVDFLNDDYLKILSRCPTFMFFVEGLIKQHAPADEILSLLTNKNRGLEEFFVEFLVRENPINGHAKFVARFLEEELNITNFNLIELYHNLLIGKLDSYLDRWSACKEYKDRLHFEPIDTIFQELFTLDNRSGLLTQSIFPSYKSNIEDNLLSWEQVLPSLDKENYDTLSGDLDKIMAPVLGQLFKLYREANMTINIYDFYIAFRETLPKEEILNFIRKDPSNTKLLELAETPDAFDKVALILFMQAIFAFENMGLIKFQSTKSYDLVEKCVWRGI
# B1: Orc4, subunit of S. cerevisiae ORC (natural protein)
# chain: MTISEARLSPQVNLLPIKRHSNEEVEETAAILKKRTIDNEKCKDSDPGFGSLQRRLLQQLYGTLPTDEKIIFTYLQDCQQEIDRIIKQSIIQKESHSVILVGPRQSYKTYLLDYELSLLQQSYKEQFITIRLNGFIHSEQTAINGIATQLEQQLQKIHGSEEKIDDTSLETISSGSLTEVFEKILLLLDSTTKTRNEDSGEVDRESITKITVVFIFDEIDTFAGPVRQTLLYNLFDMVEHSRVPVCIFGCTTKLNILEYLEKRVKSRFSQRVIYMPQIQNLDDMVDAVRNLLTVRSEISPWVSQWNETLEKELSDPRSNLNRHIRMNFETFRSLPTLKNSIIPLVATSKNFGSLCTAIKSCSFLDIYNKNQLSNNLTGRLQSLSDLELAILISAARVALRAKDGSFNFNLAYAEYEKMIKAINSRIPTVAPTTNVGTGQSTFSIDNTIKLWLKKDVKNVWENLVQLDFFTEKSAVGLRDNATAAFYASNYQFQGTMIPFDLRSYQMQIILQELRRIIPKSNMYYSWTQL
# notes: Orc4, S. cerevisiae, as the Orc4 chain of m1; Stood in the assay as a subunit of the whole ORC; written on its own for the contacts seen in the structure; source: purified as part of ORC, as described previously with minor modifications
# B2: Cdc6 (replication initiator), S. cerevisiae, wild type (natural protein)
# chain: MSAIPITPTKRIRRNLFDDAPATPPRPLKRKKLQFTDVTPESSPEKLQFGSQSIFLRTKALLQKSSELVNLNSSDGALPARTAEYEQVMNFLAKAISEHRSDSLYITGPPGTGKTAQLDMIIRQKFQSLPLSLSTPRSKDVLRHTNPNLQNLSWFELPDGRLESVAVTSINCISLGEPSSIFQKIFDSFQDLNGPTLQIKNMQHLQKFLEPYHKKTTFVVVLDEMDRLLHANTSETQSVRTILELFLLAKLPTVSFVLIGMANSLDMKDRFLSRLNLDRGLLPQTIVFQPYTAEQMYEIVIQKMSSLPTIIFQPMAIKFAAKKCAGNTGDLRKLFDVLRGSIEIYELEKRFLLSPTRGSLNSAQVPLTPTTSPVKKSYPEPQGKIGLNYIAKVFSKFVNNNSTRTRIAKLNIQQKLILCTIIQSLKLNSDATIDESFDHYIKAITKTDTLAPLQRNEFLEICTILETCGLVSIKKTKCKGKTKRFVDKIDVDLDMREFYDEMTKISILKPFLH
# notes: Cdc6, S. cerevisiae; also called yeast Cdc6; source: purified as described previously, with minor modifications (lysis buffer with 500 mM potassium phosphate)
# B3: Orc5, subunit of S. cerevisiae ORC (natural protein)
# chain: MNVTTPEVAFREYQTNCLASYISADPDITPSNLILQGYSGTGKTYTLKKYFNANPNLHAVWLEPVELVSWKPLLQAIARTVQYKLKTLYPNIPTTDYDPLQVEEPFLLVKTLHNIFVQYESLQEKTCLFLILDGFDSLQDLDAALFNKYIKLNELLPKDSKINIKFIYTMLETSFLQRYSTHCIPTVMFPRYNVDEVSTILVMSRCGELMEDSCLRKRIIEEQITDCTDDQFQNVAANFIHLIVQAFHSYTGNDIFALNDLIDFKWPKYVSRITKENIFEPLALYKSAIKLFLSTDDNLSENGQGESAITTNRDDLENSQTYDLSIISKYLLIASYICSYLEPRYDASIFSRKTRIIQGRAAYGRRKKKEVNPRYLQPSLFAIERLLAIFQAIFPIQGKAESGSLSALREESLMKANIEVFQNLSELHTLKLIATTMNKNIDYLSPKVRWKVNVPWEIIKEISESVHFNISDYFSDIHE
# notes: Orc5, S. cerevisiae, as the Orc5 chain of m1; Stood in the assay as a subunit of the whole ORC; written on its own for the contacts seen in the structure; source: purified as part of ORC, as described previously with minor modifications
# Assays:
# Test in all cases: cryo-EM structure; ORC first bound to 85 bp ARS1 origin dsDNA, then Cdc6 added (about 1 μM ORC:1.25 μM DNA:6.4 μM Cdc6), 5 mM ATPγS, 5 mM DTT, on ice; no cross-linking agent; maps at 3.3 and 3.6 Å
# Conditions in all cases: both partners purified
# [1] = molecular target: T1, Orc1, subunit of S. cerevisiae ORC
# [2] = molecular target: T3, origin recognition complex (ORC; Orc1-6), S. cerevisiae (S. cerevisiae, UniProt P54784 1-914; P32833 1-620; P54790 1-616; P54791 1-529; P50874 1-479; P38826 …)
# T3 construct: Orc1, S. cerevisiae, subunit of ORC; BAH domain disordered in the map; Orc2, S. cerevisiae, subunit of ORC; WHD flexible and not visible in the map; Orc3, S. cerevisiae, subunit of ORC; Orc4, S. cerevisiae, subunit of ORC; Orc5, S. cerevisiae, subunit of ORC; Orc6, S. cerevisiae, subunit of ORC; TFIIB-A domain disordered in the map; also called yeast ORC; source: purified as described previously, …
# T3 sequence (P32833 whole entry, chain 2 of 2, the tested form may be a part): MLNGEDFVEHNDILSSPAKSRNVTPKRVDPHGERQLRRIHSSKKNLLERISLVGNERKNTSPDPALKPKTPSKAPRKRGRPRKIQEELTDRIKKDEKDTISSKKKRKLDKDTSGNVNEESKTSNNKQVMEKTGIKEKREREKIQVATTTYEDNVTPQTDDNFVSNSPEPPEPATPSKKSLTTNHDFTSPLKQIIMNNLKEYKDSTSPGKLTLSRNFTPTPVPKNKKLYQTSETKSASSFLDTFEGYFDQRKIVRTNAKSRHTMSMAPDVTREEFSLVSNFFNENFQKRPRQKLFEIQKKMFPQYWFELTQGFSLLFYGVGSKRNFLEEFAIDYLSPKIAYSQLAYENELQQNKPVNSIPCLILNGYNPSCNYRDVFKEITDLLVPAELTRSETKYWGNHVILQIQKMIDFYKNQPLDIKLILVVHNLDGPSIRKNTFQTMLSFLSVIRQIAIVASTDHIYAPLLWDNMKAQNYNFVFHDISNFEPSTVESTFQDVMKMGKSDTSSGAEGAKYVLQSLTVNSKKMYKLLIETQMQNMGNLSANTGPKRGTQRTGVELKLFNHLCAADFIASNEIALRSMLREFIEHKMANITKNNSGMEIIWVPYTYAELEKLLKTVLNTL
# T3 sequence (P38826 whole entry, chain 6 of 2, the tested form may be a part): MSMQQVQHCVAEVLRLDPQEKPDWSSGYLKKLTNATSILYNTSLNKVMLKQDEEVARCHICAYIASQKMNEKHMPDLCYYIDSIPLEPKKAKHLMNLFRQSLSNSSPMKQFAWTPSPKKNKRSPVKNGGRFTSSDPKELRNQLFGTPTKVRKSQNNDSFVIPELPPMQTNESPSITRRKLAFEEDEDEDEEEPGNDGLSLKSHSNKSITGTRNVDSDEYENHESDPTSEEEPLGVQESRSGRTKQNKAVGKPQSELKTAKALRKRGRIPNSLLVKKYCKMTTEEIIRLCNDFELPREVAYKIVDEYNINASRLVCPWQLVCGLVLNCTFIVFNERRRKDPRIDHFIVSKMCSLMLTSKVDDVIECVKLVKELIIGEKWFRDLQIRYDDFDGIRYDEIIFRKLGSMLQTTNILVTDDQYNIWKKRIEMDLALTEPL
# [3] = molecular target: T2, Orc3, subunit of S. cerevisiae ORC
# [4] = molecular target: B1
binding result [1],binding result [2],binding result [3],binding result [4],Binder
binds,–,–,–,B1
binds,binds,–,–,B2
–,–,binds,binds,B3
